Source: paper PMC10267887
Several values for one entry are separate records, joined by “and”; a condition that tells them apart may be missing. Equal entries are not always repeated.

Key:
[1] = target: fibroblast growth factor 2 fused to GFP (FGF2-GFP), His-tagged (UniProt P09038); experiment: dual(+1)-FCS (brightness analysis by fluorescence correlation spectroscopy); as a1; FINAL state (t >= 240 min), (leaky to leaky) GUVs only
[2] = target: fibroblast growth factor 2 fused to GFP (FGF2-GFP), His-tagged (UniProt P09038); experiment: dual(+1)-FCS (brightness analysis by fluorescence correlation spectroscopy); as a1; INITIAL state (t = 60-120 min), leaky, (leaky to leaky) GUVs
[3] = target: fibroblast growth factor 2 fused to GFP (FGF2-GFP), His-tagged (UniProt P09038); experiment: dual(+1)-FCS (brightness analysis by fluorescence correlation spectroscopy); 200 nM FGF2-GFP on immobilised GUVs of plasma-membrane-like lipids with 2 mol % PI(4,5)P2, HEPES buffer (25 mM HEPES, 150 mM NaCl, pH 7.4); average oligomeric state per GUV; FINAL state (t >= 240 min), permeabilized (leaky) GUVs

**Q.** Which results are given for “fibroblast growth factor 2 fused to GFP (FGF2-GFP), His-tagged (from UniProt P09038 1-288) (natural protein)”?
**A.** stoichiometry N [1]: < 10 m.u. and 4.21 m.u.; stoichiometry N [2]: 2 and 6; stoichiometry N [3]: 2 and 6
